B1: Nucleotide exchange factor SIL1 (Homo sapiens), Q9H173 (parent)
chain: MAPQSLPSSRMAPLGMLLGLLMAACFTFCLSHQNLKEFALTNPEKSSTKETERKETKAEEELDAEVLEVFHPTHEWQALQPGQAVPAGSHVRLNLQTGEREAKLQYEDKFRNNLKGKRLDINTNTYTSQDLKSALAKFKEGAEMESSKEDKARQAEVKRLFRPIEELKKDFDELNVVIETDMQIMVRLINKFNSSSSSLEEKIAALFDLEYYVHQMDNAQDLLSFGGLQVVINGLNSTEPLVKEYAAFVLGAAFSSNPKVQVEAIEGGALQKLLVILATEQPLTAKKKVLFALCSLLRHFPYAQRQFLKLGGLQVLRTLVQEKGTEVLAVRVVTLLYDLVTEKMFAEEEAELTQEMSPEKLQQYRQVHLLPGLWEQGWCEITAHLLALPEHDAREKVLQTLGVLLTTCRDRYRQDPQLGRTLASLQAEYQVLASLELQDGEDEGYFQELLGSVNSLLKELR

Variants of: B1
Conditions: with bip_human HSPA5, P11021
Sequence of bip_human HSPA5, P11021 (P11021 whole entry): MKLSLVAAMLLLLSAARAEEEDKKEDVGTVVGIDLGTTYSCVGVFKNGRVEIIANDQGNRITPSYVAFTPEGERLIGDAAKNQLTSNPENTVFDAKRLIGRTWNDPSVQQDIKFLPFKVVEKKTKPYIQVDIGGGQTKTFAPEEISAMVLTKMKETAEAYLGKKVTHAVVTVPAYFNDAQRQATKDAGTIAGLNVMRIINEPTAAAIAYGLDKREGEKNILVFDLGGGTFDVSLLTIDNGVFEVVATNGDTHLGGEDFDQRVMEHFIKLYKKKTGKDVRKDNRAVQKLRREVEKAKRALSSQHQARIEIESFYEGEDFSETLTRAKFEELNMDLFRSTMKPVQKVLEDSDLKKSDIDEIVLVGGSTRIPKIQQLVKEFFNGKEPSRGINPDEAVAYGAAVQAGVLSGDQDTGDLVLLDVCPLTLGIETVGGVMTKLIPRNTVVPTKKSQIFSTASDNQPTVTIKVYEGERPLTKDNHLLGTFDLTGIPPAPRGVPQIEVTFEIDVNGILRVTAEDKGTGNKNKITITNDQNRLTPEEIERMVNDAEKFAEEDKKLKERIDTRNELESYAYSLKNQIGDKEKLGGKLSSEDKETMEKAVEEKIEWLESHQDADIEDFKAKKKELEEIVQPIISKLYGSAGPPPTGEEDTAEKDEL

Variant	effect of a mutation on the interaction
L457P	decreasing interaction strength
